From paper PMC12906813, “The Transcription Factors NFYA1 and GBF3 Jointly Regulate CHS2 to Promote Tangeretin Accumulation and Cold Tolerance in Citrus”
Changes are numbered by the printed parent chain.

Columns and labels:
[1] = biological target: CiNFYA1 (Citrus ichangensis (Ichang papeda), UniProt A0A067ER94 1-365); assay: EMSA; Chemiluminescent EMSA Kit (Beyotime GS009); buffer, salt, pH and temperature not stated; conditions: protein: recombinant; tags: His (pHMGWA vector); label: biotin; blunt
[2] = biological target: T1, CiGBF3 (Citrus ichangensis (Ichang papeda), UniProt V4U7K8 1-421); assay: as above; conditions: protein: recombinant; tags: His (pHMGWA vector); chain copies: 2; label: biotin; blunt
T1 sequence: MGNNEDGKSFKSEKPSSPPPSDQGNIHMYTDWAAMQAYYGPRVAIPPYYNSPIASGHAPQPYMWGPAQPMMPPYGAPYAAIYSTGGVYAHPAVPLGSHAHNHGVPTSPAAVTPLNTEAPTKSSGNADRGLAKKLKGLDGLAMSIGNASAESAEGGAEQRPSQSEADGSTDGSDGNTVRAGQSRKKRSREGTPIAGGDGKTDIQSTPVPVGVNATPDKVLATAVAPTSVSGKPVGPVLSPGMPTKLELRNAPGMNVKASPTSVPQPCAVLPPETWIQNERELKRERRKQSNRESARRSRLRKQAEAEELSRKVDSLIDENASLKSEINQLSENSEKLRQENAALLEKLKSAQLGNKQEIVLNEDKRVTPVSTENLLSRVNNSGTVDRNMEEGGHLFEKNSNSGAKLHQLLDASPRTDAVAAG

Chain of CiNFYA1 (A0A067ER94 entry or part of it): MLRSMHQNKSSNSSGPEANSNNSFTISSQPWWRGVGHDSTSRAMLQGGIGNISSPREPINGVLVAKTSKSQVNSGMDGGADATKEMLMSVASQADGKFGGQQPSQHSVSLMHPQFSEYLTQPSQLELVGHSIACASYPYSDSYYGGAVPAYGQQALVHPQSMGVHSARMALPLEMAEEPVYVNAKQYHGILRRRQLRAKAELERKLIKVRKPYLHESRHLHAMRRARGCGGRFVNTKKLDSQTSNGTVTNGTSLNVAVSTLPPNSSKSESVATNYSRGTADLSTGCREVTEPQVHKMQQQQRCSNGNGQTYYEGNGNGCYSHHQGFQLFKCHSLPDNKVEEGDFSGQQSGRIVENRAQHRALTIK

B1: CHS2-CCAAT probe (Probe 1) (dsDNA)
DNA 1: AAAGATCCATTTAATATGTTCCAATTACCGCATTACAAGTACTAAA
DNA 2: TTTAGTACTTGTAATGCGGTAATTGGAACATATTAAATGGATCTTT
[1]
  binding result: binds

B2: CHS2-mCCAAT probe (mProbe1) (dsDNA)
DNA 1: B1 DNA 1 with T20A, C21A, C22A, T25A
DNA 2: B1 DNA 2 with A22T, G25T, G26T, A27T
[1]
  binding result: no binding

B3: CHS2-mCACGTG probe (mProbe2) (dsDNA)
DNA 1: GCAGCCTAACACTATCTTTTTTGTCAGCATCTGCCCGT
DNA 2: ACGGGCAGATGCTGACAAAAAAGATAGTGTTAGGCTGC
[2]
  binding result: no binding

B4: CHS2-CACGTG probe (Probe 2) (dsDNA)
DNA 1: GCAGCCTAACACTATCCACGTGGTCAGCATCTGCCCGT
DNA 2: ACGGGCAGATGCTGACCACGTGGATAGTGTTAGGCTGC
[2]
  binding result: binds
